# Earlier results, collected in paper PMC5576018.
# Biological target: CSL (Homo sapiens) (UniProt Q06330)
# UniProt Q06330, sequence (Q06330 whole entry): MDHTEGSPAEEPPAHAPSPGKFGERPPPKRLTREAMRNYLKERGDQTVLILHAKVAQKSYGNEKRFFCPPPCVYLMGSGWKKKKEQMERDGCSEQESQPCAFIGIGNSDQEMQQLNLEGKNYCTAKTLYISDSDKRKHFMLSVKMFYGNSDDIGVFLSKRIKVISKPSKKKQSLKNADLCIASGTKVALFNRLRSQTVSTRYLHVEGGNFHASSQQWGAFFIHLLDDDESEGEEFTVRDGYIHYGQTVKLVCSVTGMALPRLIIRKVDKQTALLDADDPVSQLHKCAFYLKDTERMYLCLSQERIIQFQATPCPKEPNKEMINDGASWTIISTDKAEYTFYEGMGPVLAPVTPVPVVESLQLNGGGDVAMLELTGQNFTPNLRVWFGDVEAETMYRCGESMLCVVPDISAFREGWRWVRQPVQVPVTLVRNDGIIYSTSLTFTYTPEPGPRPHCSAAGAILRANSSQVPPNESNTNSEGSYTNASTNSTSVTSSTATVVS
substance,measurement,value
Notch RAM RAM (from UniProt P46531),Kd,22 nM
